Biological target: ATG16L1-(StrepII^2x)ATG5–ATG12 complex (UniProt Q676U5;Q9H1Y0;O94817)
Assay: BLI

ATG16L1-(StrepII^2x)ATG5–ATG12 complex, sequence (Q676U5 whole entry, chain 1 of 3): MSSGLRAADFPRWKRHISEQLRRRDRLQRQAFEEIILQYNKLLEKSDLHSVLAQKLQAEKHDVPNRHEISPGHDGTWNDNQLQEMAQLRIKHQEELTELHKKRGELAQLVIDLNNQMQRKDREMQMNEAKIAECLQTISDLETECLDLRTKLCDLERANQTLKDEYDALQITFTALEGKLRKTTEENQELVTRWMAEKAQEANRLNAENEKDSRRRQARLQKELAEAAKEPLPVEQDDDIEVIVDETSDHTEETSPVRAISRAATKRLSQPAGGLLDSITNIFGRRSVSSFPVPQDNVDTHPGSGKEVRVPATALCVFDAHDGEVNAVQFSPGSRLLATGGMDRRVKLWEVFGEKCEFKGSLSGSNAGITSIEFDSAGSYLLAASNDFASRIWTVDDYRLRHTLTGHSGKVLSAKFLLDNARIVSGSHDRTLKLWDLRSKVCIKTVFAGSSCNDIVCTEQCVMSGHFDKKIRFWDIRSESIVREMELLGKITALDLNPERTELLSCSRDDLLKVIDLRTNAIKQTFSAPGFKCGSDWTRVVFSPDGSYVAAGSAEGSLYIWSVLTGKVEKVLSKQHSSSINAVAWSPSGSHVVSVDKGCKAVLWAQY
ATG16L1-(StrepII^2x)ATG5–ATG12 complex, sequence (Q9H1Y0 whole entry, chain 2 of 3): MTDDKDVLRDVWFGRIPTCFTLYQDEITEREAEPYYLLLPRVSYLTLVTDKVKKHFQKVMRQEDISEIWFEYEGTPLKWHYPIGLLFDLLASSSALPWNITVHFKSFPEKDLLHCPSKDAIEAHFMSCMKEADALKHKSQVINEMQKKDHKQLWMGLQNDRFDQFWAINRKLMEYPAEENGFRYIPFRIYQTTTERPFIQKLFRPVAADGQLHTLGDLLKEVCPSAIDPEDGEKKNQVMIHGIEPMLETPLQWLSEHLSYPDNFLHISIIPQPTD
ATG16L1-(StrepII^2x)ATG5–ATG12 complex, sequence (O94817 whole entry, chain 3 of 3): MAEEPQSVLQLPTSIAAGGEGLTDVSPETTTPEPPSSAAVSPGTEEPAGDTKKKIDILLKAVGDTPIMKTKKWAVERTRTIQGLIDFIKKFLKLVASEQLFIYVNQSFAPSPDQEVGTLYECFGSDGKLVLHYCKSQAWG

B1: 6xHis-3xFLAG-V1H(1-351) (domain or fragment)
chain: MTKMDIRGAVDAAVPTNIIAAKAAEVRANKVNWQSYLQGQMISAEDCEFIQRFEMKRSPEEKQEMLQTEGSQCAKTFINLMTHICKEQTVQYILTMVDDMLQENHQRVSIFFDYARCSKNTAWPYFLPMLNRQDPFTVHMAARIIAKLAAWGKELMEGSDLNYYFNWIKTQLSSQKLRGSGVAVETGTVSSSDSSQYVQCVAGCLQLMLRVNEYRFAWVEADGVNCIMGVLSNKCGFQLQYQMIFSIWLLAFSPQMCEHLRRYNIIPVLSDILQESVKEKVTRIILAAFRNFLEKSTERETRQEYALAMIQCKVLKQLENLEQQKYDDEDISEDIKFLLEKLGESVQDLSS
With B1 the Kd was 9.2 µM.
